# Assay results: patent US20220184221A1 (published 2022)
# Where no end group is shown, it is not given here.
# T1: recombinant KDM5C (UniProt P41229 1-765)
# T1 chain: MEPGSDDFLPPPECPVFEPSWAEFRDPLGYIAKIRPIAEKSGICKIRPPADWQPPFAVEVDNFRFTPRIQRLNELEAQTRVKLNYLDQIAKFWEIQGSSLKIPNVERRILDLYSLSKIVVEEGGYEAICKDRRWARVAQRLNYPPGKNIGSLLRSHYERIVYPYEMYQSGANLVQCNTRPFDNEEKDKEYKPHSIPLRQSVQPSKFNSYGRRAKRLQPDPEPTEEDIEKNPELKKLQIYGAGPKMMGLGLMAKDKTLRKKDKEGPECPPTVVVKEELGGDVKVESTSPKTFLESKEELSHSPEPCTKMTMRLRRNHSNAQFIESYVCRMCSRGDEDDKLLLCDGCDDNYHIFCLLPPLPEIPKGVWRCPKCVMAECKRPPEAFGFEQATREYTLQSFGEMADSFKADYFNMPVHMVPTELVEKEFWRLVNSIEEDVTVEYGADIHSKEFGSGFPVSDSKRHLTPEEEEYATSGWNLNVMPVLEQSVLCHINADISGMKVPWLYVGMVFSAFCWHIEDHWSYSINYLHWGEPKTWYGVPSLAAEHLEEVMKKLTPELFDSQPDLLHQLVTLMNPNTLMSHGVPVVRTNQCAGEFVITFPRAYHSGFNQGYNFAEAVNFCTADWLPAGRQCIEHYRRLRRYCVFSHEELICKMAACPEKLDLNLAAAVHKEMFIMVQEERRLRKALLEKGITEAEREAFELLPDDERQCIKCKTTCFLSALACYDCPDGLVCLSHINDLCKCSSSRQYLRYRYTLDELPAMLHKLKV
# How the values were obtained:
# Test in all cases: inhibition of recombinant KDM5 demethylase activity (H3K4me3 peptide); legend calls it IC50
# KDM5A = molecular target: KDM5A
# KDM5B = molecular target: KDM5B
# recombinant KDM5C = molecular target: T1, recombinant KDM5C
binder,measurement,setting,value
"TEDSKTHHH (also: fluorescein label in FP assay, end not given here) [EP4]",EC50,KDM5A,422 nM
same,EC50,KDM5B,377 nM
same,EC50,recombinant KDM5C,0.97 nM
